# Data published in patent US20230107644A1.
# Legend:
# [1] = target: H1 protein
# [2] = target: H3 A/duck/Shantou/1283/2001 (Influenza A virus (A/duck/Shantou/1283/2001))
# [3] = target: H7 protein
# [4] = target: HA (H3) of influenza virus A/Brisbane/10/2007 (influenza A virus A/Brisbane/10/2007 (H3N2))
# [5] = target: HA (H3) of influenza virus A/Perth/16/2009 (influenza A virus A/Perth/16/2009 (H3N2))
# [6] = target: HA (H3) of influenza virus A/Wisconsin/67/2005 (influenza A virus A/Wisconsin/67/2005 (H3N2))
# [7] = target: HA (H3) of influenza virus A/Brisbane/10/2007 (influenza A virus A/Brisbane/10/2007 (H3N2)); experiment: cell-based or functional assay
# [8] = target: HA (H3) of influenza virus A/Perth/16/2009 (influenza A virus A/Perth/16/2009 (H3N2)); experiment: cell-based or functional assay
# [9] = target: HA (H3) of influenza virus A/Switzerland/9715283/2013 (influenza A virus A/Switzerland/9715283/2013 (H3N2)); experiment: cell-based or functional assay
# [10] = target: HA (H3) of influenza virus A/Texas/50/2012 (influenza A virus A/Texas/50/2012 (H3N2)); experiment: cell-based or functional assay
# [11] = target: HA (H3) of influenza virus A/Uruguay/716/2007 (influenza A virus A/Uruguay/716/2007 (H3N2)); experiment: cell-based or functional assay
# [12] = target: HA (H3) of influenza virus A/Victoria/210/2009 (influenza A virus A/Victoria/210/2009 (H3N2)); experiment: cell-based or functional assay
# [13] = target: HA (H3) of influenza virus A/Victoria/361/2011 (influenza A virus A/Victoria/361/2011 (H3N2)); experiment: cell-based or functional assay
# [14] = target: HA (H3) of influenza virus A/Wisconsin/67/2005 (influenza A virus A/Wisconsin/67/2005 (H3N2)); experiment: cell-based or functional assay
# [15] = target: N2 A/shorebird/Delaware/127/1997 (Influenza A virus (A/shorebird/Delaware/127/1997))
# [16] = target: NA (N2) of influenza virus A/Brisbane/10/2007 (influenza A virus A/Brisbane/10/2007 (H3N2))
# [17] = target: NA (N2) of influenza virus A/Wisconsin/67/2005 (influenza A virus A/Wisconsin/67/2005 (H3N2))
# [18] = target: NA (N2) of influenza virus A/Brisbane/10/2007 (influenza A virus A/Brisbane/10/2007 (H3N2)); experiment: cell-based or functional assay
# [19] = target: NA (N2) of influenza virus A/Perth/16/2009 (influenza A virus A/Perth/16/2009 (H3N2)); experiment: cell-based or functional assay
# [20] = target: NA (N2) of influenza virus A/Texas/50/2012 (influenza A virus A/Texas/50/2012 (H3N2)); experiment: cell-based or functional assay
# [21] = target: NA (N2) of influenza virus A/Uruguay/716/2007 (influenza A virus A/Uruguay/716/2007 (H3N2)); experiment: cell-based or functional assay
# [22] = target: NA (N2) of influenza virus A/Victoria/361/2011 (influenza A virus A/Victoria/361/2011 (H3N2)); experiment: cell-based or functional assay
# [23] = target: NA (N2) of influenza virus A/Wisconsin/67/2005 (influenza A virus A/Wisconsin/67/2005 (H3N2)); experiment: cell-based or functional assay
Binder,ELISA area under curve (AUC) [1],ELISA area under curve (AUC) [2],ELISA area under curve (AUC) [3],ELISA area under curve (AUC) [4],ELISA area under curve (AUC) [5],ELISA area under curve (AUC) [6],NT50 [7] [µg/mL],NT50 [8] [µg/mL],NT50 [9] [µg/mL],NT50 [10] [µg/mL],NT50 [11] [µg/mL],NT50 [12] [µg/mL],NT50 [13] [µg/mL],NT50 [14] [µg/mL],ELISA area under curve (AUC) [15],ELISA area under curve (AUC) [16],ELISA area under curve (AUC) [17],further results
"1092E4 hmAb (antibody, V domains shown) VH: QVQLVQSGAEVKKPGASVKVSCKASGYSFTRYGISWVRQAPGQGLEWMGWISAYTGNTDYAQKFQGRITMTTDTSTSTVYMELRSLRSDDTAVYYCARDHPQGVVILGSYYYGMDVWGQGNTVTVSS VL: EIVLTQSPGTLSLSPGERATLSCRASQSVTSRYLAWYQQKLGQAPRLLIYGASSRATGIPDRFSGSGSGTDFTLTISSLEPEDFAVYYCQQSGSPRTFGQGTKVEIK",18.5,28.7,26,31.7,33.4,32.5,0.1,3.13,6.25,6.25,0.1,6.25,0.1,0.2,,,,
"1092C4 hmAb (antibody, V domains shown) VH: EVQLVQSGAEVKKPGASVKVSCKASGYSFTRYGISWVRQAPGQGLEWMGWISAYTGNTDYAQKFQGRITMTTDTSTSTAYMELRSLRSDDTAVYYCARDLPQGVVILGSYYYGMDVWGQGNTVTVSS VL: EIVLTQSPGTLSLSPGERATLSCRASQSVTSRYLAWYQQKLGQAPRLLIYGASSRATGIPDRFSGSGSGTDFTLTISSLEPEDLAVYYCQQSGSPRTFGQGTKVEIK",9.8,34.4,27.3,32.3,31.4,33.7,0.1,3.13,0.78,6.25,0.2,6.25,0.1,1.6,,,,
"1086G8 hmAb (antibody, V domains shown) VH: EVQLLESGGGLVQPGGSLRLSCTASGFTFASDAMNWVRQAPGKGLEWVSAISGNGGITYFADSVKGRFTISRDNSKDTLYLQMDSLRAEDTAVYYCAKGVAPSHFNLLTGYYAGHYYFDFWGQGTLVTVSS VL: EIVMTQSPATLSVSPGERATLSCRASQSVRHNLAWYQHKPGQPPRLLIYGASTRAASVPARFSGSGSGTDFTLTISSLQSEDFAVYYCQQYNHWPPYTFGQGTKLEIK",11.4,31.4,25.2,31.2,28,33.7,0.4,6.25,12.5,6.25,0.4,12.5,0.2,3.13,,,,
"1122A11 hmAb (antibody, V domains shown) VH: QVQLVQSGAEVSKPGASVKVSCKASGYSFTSQSLGWVRQAPGQGLEWMGIINPSGGITNYAHKFQGRVTMTRDTSTSTVYMELSSLRSEDTALYYCVRDLSHYNEVGHDRAYYYGMDIWGQGTTVTVSS VL: SYELIQPPSVSVSPGQTASITCSGDKLGKKYTCWYQQKPGQSPVLVIYQDNKRPSGIPERFSGSNSGNTATLTISGTQAMDEADYYCQAWDSSAVVFGGGTKLTVL",,,,,,,,,,,,,,,15.2,35.8,34.7,NT50 [18]: 6.25 µg/mL; NT50 [19]: 0.2 µg/mL; NT50 [20]: 3.13 µg/mL; NT50 [21]: 0.2 µg/mL; NT50 [22]: 1.6 µg/mL; NT50 [23]: 25 µg/mL
"1122B9 hmAb (antibody, V domains shown) VH: EVQLVESGGGLVQPGGSLRLSCAASGFTFSGYAMSWVRQAPGKGLECVSGIIGSGGSTYSADSVKGRFTISRDNSKNTLDLEMNSLRAEDTAVYYCAKHTKSHYYSGMGVWGQGTTVTVSS VL: DIQMTQSPSSLSASVGDRVTITCQASQDISNYLNWYQQRPGKAPKLLIYDAANLETGVPSRFSGSGSATQFTFTISGLQPEDFATYYCQQYDNLPLTFGGGTKVEIK",,,,,,,,,,,,,,,25.2,35.2,35.3,
